Settings: Homo sapiens; pH 2.7; Thermal; DSC; glycine 0.05 M; reversible: yes; whole UniProt chain shown

B1: Lysozyme C wild type, P61626 (protein)
chain: MKALIVLGLVLLSVTVQGKVFERCELARTLKRLGMDGYRGISLANWMCLAKWESGYNTRATNYNAGDRSTDYGIFQINSRYWCNDGKTPGAVNACHLSCSALLQDNIADAVACAKRVVRDPQGIRAWVAWRNRCQNRDVRQYVQGCGV
In the case of B1, the Tm is reported as 64.9 °C, the “heat capacity change of unfolding” value is reported as 1.58 kcal/mol/K and the “unfolding enthalpy (calorimetric)” value is reported as 477 kJ/mol.

Reference: FireProtDB (doi:10.1093/protein/12.8.663)
